From patent US20260258115A1 (MAPP BIOPHARMACEUTICAL, published 2026)

How the values were obtained:
[1] = molecular target: RSV F on RSV subtype B virus (mKate-RSV B 18537) (Respiratory Syncytial Virus, subtype B, …, UniProt P13843 26-574); test: cell-based or functional assay
[2] = molecular target: T1, RSV F on RSV subtype A virus (RSV-A2) (Respiratory Syncytial Virus, subtype A, …, UniProt P03420 26-574); test: cell-based or functional assay
[3] = molecular target: T2, RSV prefusion F (preF), DS-Cav1 stabilized trimer, subtype A (Respiratory Syncytial Virus, subtype A, UniProt P03420 26-513); test: BLI, apparent IgG KD (Table 9A)
[4] = molecular target: T3, RSV postfusion F (postF), F ΔFP trimer, subtype A (Respiratory Syncytial Virus, subtype A, UniProt P03420 26-513); test: BLI, apparent IgG KD (Table 9A)
[5] = molecular target: RSV postfusion F (postF), F deltaFP (respiratory syncytial virus, UniProt P03420 26-513); test: BLI, IgG on sensor, 100 nM antigen
[6] = molecular target: RSV prefusion F (preF), DS-Cav1 (respiratory syncytial virus, UniProt P03420 26-513); test: BLI, IgG on sensor
[7] = molecular target: RSV fusion glycoprotein (RSV F) on RSV-A2 virus (respiratory syncytial virus, UniProt P03420 26-574); test: cell-based or functional assay
[8] = molecular target: T2, RSV prefusion F (preF), DS-Cav1 …; test: BLI, IgG on anti-human IgG sensors
[9] = molecular target: T1, RSV F on RSV subtype A virus (RSV-A2); test: cell-based or functional assay; remark: listed apart in the source
[10] = molecular target: T3, RSV postfusion F (postF), F ΔFP trimer, …; test: BLI, IgG on anti-human IgG sensors, 100 nM antigen, apparent KD
[11] = molecular target: T4, preF (DS-Cav1) with a C-terminal 8X HisTag and AviTag (Respiratory Syncytial Virus, UniProt P03420 26-513); test: SPR, preF (DS-Cav1) captured on NTA chip, Fab in solution, 1:1 model
T4 construct: not shown: C-terminal 8X HisTag and AviTag

[12] = molecular target: RSV postfusion F (postF), F ΔFP (Respiratory Syncytial Virus, UniProt P03420 26-513); test: BLI (ForteBio Octet), IgG on anti-human IgG biosensors, 100 nM antigen, apparent (IgG) KD
[13] = molecular target: Respiratory Syncytial Virus fusion glycoprotein (RSV F) on RSV-A2 virus (Respiratory Syncytial Virus, UniProt P03420 26-574); test: cell-based or functional assay
[14] = molecular target: RSV prefusion F (preF), DS-Cav1 (Respiratory Syncytial Virus, UniProt P03420 26-513); test: BLI (ForteBio Octet), IgG on anti-human IgG biosensors

Binder | Neutralization - RSV A2 IC50 (pM) [2] | Kd [3] | Kd [4] | Kd [5] | binding result [6] | Neutralization IC50 (RSV subtype A) [7] | further results
ADI-14405 (antibody, V domains shown, also called Ab 71; Antibody Number 71) VH: QVQLVQSGTEVKKPGASVKVSCKASGYTFTNYDISWVRQAPGQGLEWMGWISGSTGNTIYAQNLQGRLTMTTDTSTSTAYMELRSLRSDDTAIYYCARDNVGYASGNYFDYWGQGTLVTVSS VL: SYVLTQPPSVSVAPGKTARIPCGGNNIGSKSVHWYQQRPGQAPVLVIYYDSVRPSGIPERFSGSNSGNTATLTISTVEAGDEADFYCQVWDSSRDHEVFGGGTKLTVL | 58.3 pM | 0.14 nM | 12 nM |  |  |  | neut IC50 (ug/ml) subtype B (graham) [1]: 0.04 µg/mL; neut IC50 (ug/ml) subtype A (graham) [2]: 0.04 µg/mL
ADI-41221 (antibody, V domains shown) VH: EVQLLESGGGLVKPGGSLRLSCAASGFTFSDYTMNWVRQAPGKGLEWVSSISITSSHIYYADSVKGRFTISRDNAKNSLYLQINSLRAEDTAAYYCARELGFASSSYSYYYGMDVWGQGTTVTVSS VL: QSALTQPRSVSGSPGQSVTISCTGTSSDVGDYNSVSWYQQHPGTAPKLIIFDVTQRPSGVPDRFSGSKSANTASLTISGLQPEDEADYYCCSFAGNYVFGTGTKVTVL | 65.4 pM | 0.3 nM | 0.32 nM |  |  |  | neut IC50 (ug/ml) subtype A (wright) [2]: 0.04 µg/mL
ADI-41435 (antibody, V domains shown, IgG1) VH: EVQLLESGGGLVKPGGSLRLSCAASGFTFSSYSLNWVRQAPGKGLEWVSSISSSGTYIFYADSVKGRFTISRDNAKDSLFLQMNSLRAEDTAVYYCARARDMGNYDILTGYYRVDAFDIWGQGTMVTVSS VL: not shown |  |  |  | 3.47 nM | no binding (tested: 100 nM antigen) | > 25 µg/mL | 
ADI-41596 (antibody, V domains shown, also called Ab 870; Antibody Number 870) VH: QVQLQQWGAGLLKPSETLSLTCAVYGDSFSGYFWTWIRQPPGKGLEWIGEINLSGSTNYNPSLKSRVTILVDTSKNQFSLKLSSVTAADTAVYYCARGLHVSDDQDSSGYYFHPGSFDYWGQGTLVTVSS VL: not shown | 180 pM | 0.3 nM | 0.44 nM |  |  |  | neut IC50 (ug/ml) subtype A (wright) [2]: 0.054 µg/mL
ADI-41229 (antibody, V domains shown, also called Ab 551; Antibody Number 551) VH: QVQLVQSGGGVVQPGRSLKLSCAASGFTFKSYGMHWVRQAPGKGLEWVAVISYDEINKYYADSVKGRFTISRDYSKNTLSLQMNSLTTEDTAMYYCAKPKTTGYYYLDAFDFWGQGTMVTVSS VL: not shown | 228 pM | 1.1 nM | 0.71 nM |  |  |  | neut IC50 (ug/ml) subtype A (wright) [2]: 0.066 µg/mL
ADI-20975 (antibody, V domains shown) VH: QVQLVESGTHVKKPGASVKVSCEASDDTFNNKGIVWVRQAPGQGLEWMGWIRPNNGNTKYAQKFQGRVTMTTDASTNTAYMELRSLRSGDTAVYYCAREQFKWNDFYFDYWGQGILVTVSS VL: SYELMQPPSVSVAPGQTATITCGGSNIGSETVHWYQQKPGQAPVLVVHDDTDRPSGIPERFSGSNSGNTATLTISGVEAGDEADFYCQVRDSRTDDVVFGGGTKLTVL | 67 pM | 0.092 nM | 0.15 nM |  |  |  | neut IC50 (ug/ml) subtype B (graham) [1]: 0.49 µg/mL; neut IC50 (ug/ml) subtype A (graham) [2]: 0.05 µg/mL
ADI-41400 (antibody, V domains shown, IgG1; also called Ab 693) VH: EVQLLESGGGLIQPGGSLRLSCAASKFTFSDYEMNWVRQAPGKGLEWLSYISSSGGIMYYADSVKGRFTISRDNAKNSLYLQMNSLRAEDTAVYFCARAGRLLSGLDVWGHGTTVTVSS VL: EIVLTQSPSTLSASVGDRVTITCRASQSISPWLAWYQQKPGKAPKLLIYRASSLETGVPPRFSGSGSGTEFTLTISSLQPDDFATYYCQHYNSYLYSFGQGTKVEIK |  |  |  | 0.547 nM | no binding (tested: 100 nM antigen) | > 25 µg/mL | 
ADI-41379 (antibody, V domains shown, IgG1) VH: QVQLVQSGAEVKKPGESLKISCKGSGYSFSSFWIGWVRQMPGKGLEWMGIIYPGDSDTRYSPSFKGQVTISADTSISTAYLQWSSLKASDTAMYYCAKSIVGSTGSFDPWGQGTLVTVSS VL: DIQMTQSPSSLSASVGDRVTITCQASQDISNFLNWYQQKPGKAPKLLIYDASNLRTGVPSRFSGSGSGTEFTFTISSLQPEDIATYYCQQYHDLPPLTFGGGTKVDIK |  |  |  | 1.11 nM | no binding (tested: 100 nM antigen) | > 25 µg/mL | 
ADI-43638 (antibody, V domains shown) VH: QVQLQQWGAGLLKPSETLSLTCAVYGGSFSGYYWSWIRQPPGKGLEWIGEINHSGSTNYNPSLKSRVTISVDTSKNQFSLKLSSVTAADTAVYYCARGVPVLRYFDWLRFGYGMDVWGQGTTVTVSS VL: not shown |  |  |  |  |  |  | binding result [8]: no binding (tested: 100 nM antigen); Neutralization IC50 (RSV subtype A) [9]: > 25 µg/mL; Kd [10]: 9.93 nM
ADI-41406 (antibody, V domains shown, IgG1; also called Ab 698) VH: EVQLVESGGNLVQPGGSLRLSCAASGFTFSSYVMNWVRQAPGKGLEWVSGISGSGGTSYYADSVKGRFTISRDNSNNTLYLQMKSLRAEDTAVYYCAKDPRFQKWLIEGTNWFDSWGQGTLVTVSS VL: DIQVTQSPSSLSASVGDRVTITCRASQDVSNYLAWFQQKPGTAPKSLIYAASILQSGVPSKFRGSGSGTDFSLTISSLQPEDFATYYCQQYRSFPPTFGGGTKVEIK |  |  |  | 0.571 nM | no binding (tested: 100 nM antigen) | > 25 µg/mL | 
ADI-19425 Fab variant, light chain Y31A (Fab, V domains shown, also called Y33A) VH: EVQLVESGGGLVKPGGSLRLSCAASGFTFSSYSMNWVRQAPGKGLEWVSSISSSSSYIYYADSVKGRFTISRDNAKNSLYLQMNSLRAEDTAVYYCARLGYCSGGSCHFDYWGQGTLVTVSS VL: QPVLTQPPSVSGAPGQRVTISCTGSSSNIGAGADVHWYQQLPGTAPKLLIYGNSNRPSGVPDRFSGSKSGTSASLAITGLQAEDEADYYCQSYDSSLSGFYVFGTGTKLTVL |  |  |  |  |  |  | fold reduction in affinity relative to ADI-19425 Fab [11]: > 20 fold
ADI-19425 Fab variant, light chain Y91A (Fab, V domains shown, also called Y93A) VH: EVQLVESGGGLVKPGGSLRLSCAASGFTFSSYSMNWVRQAPGKGLEWVSSISSSSSYIYYADSVKGRFTISRDNAKNSLYLQMNSLRAEDTAVYYCARLGYCSGGSCHFDYWGQGTLVTVSS VL: QPVLTQPPSVSGAPGQRVTISCTGSSSNIGAGYDVHWYQQLPGTAPKLLIYGNSNRPSGVPDRFSGSKSGTSASLAITGLQAEDEADYYCQSADSSLSGFYVFGTGTKLTVL |  |  |  |  |  |  | fold reduction in affinity relative to ADI-19425 Fab [11]: > 80 fold
ADI-43639 (antibody, V domains shown) VH: QVQLVQSGSELKKPGASVKVSCKASGYTFTSYAMNWVRQAPGQGLEWMGWINTNTGNPTYAQGFTGRFVFSLDTSVSTAYLQISSLKAEDTAVYYCAAYGIHDAFDIWGQGTMVTVSS VL: not shown |  |  |  |  |  |  | binding result [8]: no binding (tested: 100 nM antigen); Neutralization IC50 (RSV subtype A) [9]: > 25 µg/mL; Kd [10]: 233 nM
ADI-43647 (antibody, V domains shown, also called Ab 828; Antibody Number 828) VH: not shown VL: DIRMTQSPSSVSASVGDRVTITCRASQGISSWLAWYQQKPGKAPKLLIYAASSLQSGVPSRFSGSGSGTDFTLTISSLQPEDFATYYCQQANSFPITFGQGTRLEIK |  |  |  |  |  |  | Kd [12]: 44.6 nM; Neutralization IC50 (RSV subtype A) [13]: > 25 µg/mL; binding result [14]: no binding
ADI-41420 (antibody, V domains shown, IgG1) VH: not shown VL: QPVLTQPPSVSGSPGQSVTISCTGTSSDVGSYNRVSWYQQPPGTAPKLMIYEVSNRPSGVPDRFSGSKSGNTASLTISGLQAEDEADYYCSSYTSSSPVFGGGTKVTVL |  |  |  | 110 nM | no binding (tested: 100 nM antigen) | > 25 µg/mL | 
ADI-41361 (antibody, V domains shown, IgG1; also called Ab 658) VH: QVQLQESGGGVVQPGRSLRLSCAASGFAFSDYAMDWVRQAPGKGLEWVAVISFDGSNKFYADSVKGRFTISRDNSENTLFLQMNSLRAEDTAVYYCVRDFVPCSGATCYLPPVYWGRGTLVTVSS VL: EIVLTQSPATLSVSPGERATLSCRASQSVSSDLAWYQQKPGQAPRLLIYGASTRATGIPARFSGSGSGTEFTLTISRLQSEDFAVYFCQQYNNWPSWTFGQGTKVEIK |  |  |  | 0.383 nM | no binding (tested: 100 nM antigen) | 2.54 µg/mL | 
